Test [1] addresses DLL4-Fc (UniProt Q9JI71). The test can be described thus: flow cytometry on cells (cell-based binding assay). The note with it: read off a plot; for percent of parent: HEK293T cells overexpressing N1 with Lfng cDNA, N1+LFNG set to 100%, parent: est. 100; for response: HEK293T cells overexpressing N1 without Lfng cDNA, MFI normalised to N1+LFNG = 100%, parent: est. 79.
Test [2] deals with DLL1-Fc (UniProt Q61483). The test can be described thus: flow cytometry on cells (cell-based binding assay). Particulars: HEK293T cells overexpressing N1 with Lfng cDNA; N1+LFNG set to 100%; parent: est. 100; read off a plot.

The text below walks through data of PMC9234238.

As to “full-length mouse NOTCH1 (WT N1), coexpressed with LFNG (from UniProt Q01705) N1-6V (Thr of the O-fucose site in EGF6 changed to Val; residue number not printed)”, the percent of parent in test [1] was 100 MFI(%); in test [2], 92 MFI(%).

With “full-length mouse NOTCH1 (WT N1), coexpressed with LFNG (from UniProt Q01705) N1-16V (Thr of the O-fucose site in EGF16 changed to Val; residue number not printed)”, the percent of parent in test [1] was 89 MFI(%); in test [2], 90 MFI(%).

Regarding “full-length mouse NOTCH1 (WT N1), coexpressed with LFNG (from UniProt Q01705) N1-26V (Thr of the O-fucose site in EGF26 changed to Val; residue number not printed)”, the percent of parent in test [1] is 100 MFI(%); in test [2] it was 89 MFI(%). The like results for “full-length mouse NOTCH1 (WT N1), coexpressed with LFNG (from UniProt Q01705) N1-27V (Thr of the O-fucose site in EGF27 changed to Val; residue number not printed)” were, in that order, 92 MFI(%) and 71 MFI(%). For “full-length mouse NOTCH1 (WT N1), expressed without LFNG (from UniProt Q01705) N1-6V (Thr of the O-fucose site in EGF6 changed to Val; residue number not printed)”, in test [1], the response is 75 MFI(%). On the same count and under the same terms, then “full-length mouse NOTCH1 (WT N1), expressed without LFNG (from UniProt Q01705) N1-16V (Thr of the O-fucose site in EGF16 changed to Val; residue number not printed)”, with 79 MFI(%).

“full-length mouse NOTCH1 (WT N1), expressed without LFNG (from UniProt Q01705) N1-26V (Thr of the O-fucose site in EGF26 changed to Val; residue number not printed)”: the response in test [1] is 85 MFI(%). Same read-out and setting: then “full-length mouse NOTCH1 (WT N1), expressed without LFNG (from UniProt Q01705) N1-27V (Thr of the O-fucose site in EGF27 changed to Val; residue number not printed)”, with 82 MFI(%).
